Laboratory results from patent US20260167699A1 (Chugai, published 2026).
Numbering of substitutions follows the chain as printed.

T1: FcγRIIb extracellular domain, C-terminal His tag (human, UniProt P31994 43-217)
T1 construct: extracellular domain; also called 2b
T1 sequence: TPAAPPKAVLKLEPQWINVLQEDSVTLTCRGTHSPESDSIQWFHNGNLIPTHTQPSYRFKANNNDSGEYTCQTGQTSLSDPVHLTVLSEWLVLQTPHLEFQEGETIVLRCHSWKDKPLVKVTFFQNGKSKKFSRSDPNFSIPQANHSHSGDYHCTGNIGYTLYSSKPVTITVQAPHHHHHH

T2: FcγRIIa(R) extracellular domain, C-terminal His tag (human, UniProt P12318 34-217)
T2 construct: extracellular domain; Allotype R131; also called 2aR
T2 sequence: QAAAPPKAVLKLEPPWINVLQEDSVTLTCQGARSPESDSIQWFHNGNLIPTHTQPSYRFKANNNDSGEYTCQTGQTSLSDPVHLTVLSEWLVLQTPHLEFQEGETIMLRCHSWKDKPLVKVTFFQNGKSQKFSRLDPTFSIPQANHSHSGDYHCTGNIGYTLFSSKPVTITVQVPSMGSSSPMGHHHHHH

T3: FcγRIIa(H) extracellular domain, C-terminal His tag (human, UniProt P12318 34-217)
T3 construct: extracellular domain; Allotype H131; also called 2aH
T3 sequence: T2 sequence with R134H

B1: GpH7-A5/GpH7-B3 variant L328_03V/GpL16-k0 (antibody, human IgG1, kappa)
heavy 1: not shown
heavy 2: not shown
light: DIVMTQSPLSLPVTPGEPASISCQASESLVHSNRNTYLHWYLQKPGQSPQLLIYKVSNRFSGVPDRFSGSGSGTDFTLKISRVEAEDVGVYYCSQNTHVPPTFGQGTKVEIERTVAAPSVFIFPPSDEQLKSGTASVVCLLNNFYPREAKVQWKVDNALQSGNSQESVTEQDSKDSTYSLSSTLTLSKADYEKHKVYACEVTHQGLSSPVTKSFNRGEC
notes: He Ab: anti-glypican 3 IgG1 heterodimer, only the GpH7-B3 chain mutated; position in EU numbering; also called He Ab
B2: GpH7-A5/GpH7-B3 variant P331_08L/GpL16-k0 (antibody, human IgG1, kappa)
heavy 1: not shown
heavy 2: not shown
light: B1 light
notes: as for B1
B3: GpH7-A5/GpH7-B3 variant N325_09D/GpL16-k0 (antibody, human IgG1, kappa)
heavy 1: not shown
heavy 2: not shown
light: B1 light
notes: as for B1
B4: GpH7-A5/GpH7-B3 variant L328_04F/GpL16-k0 (antibody, human IgG1, kappa)
heavy 1: not shown
heavy 2: not shown
light: B1 light
notes: as for B1
B5: GpH7-A5/GpH7-B3 variant N325_16H/GpL16-k0 (antibody, human IgG1, kappa)
heavy 1: not shown
heavy 2: not shown
light: B1 light
notes: as for B1
B6: GpH7-A5/GpH7-B3 variant P331_02A/GpL16-k0 (antibody, human IgG1, kappa)
heavy 1: not shown
heavy 2: not shown
light: B1 light
notes: as for B1
B7: GpH7-A5/GpH7-B3 variant L328_18N/GpL16-k0 (antibody, human IgG1, kappa)
heavy 1: not shown
heavy 2: not shown
light: B1 light
notes: as for B1
B8: GpH7-A5/GpH7-B3 variant L328_07I/GpL16-k0 (antibody, human IgG1, kappa)
heavy 1: not shown
heavy 2: not shown
light: B1 light
notes: as for B1
B9: GpH7-A5/GpH7-B3 variant P331_06M/GpL16-k0 (antibody, human IgG1, kappa)
heavy 1: not shown
heavy 2: not shown
light: B1 light
notes: as for B1
B10: GpH7-A5/GpH7-B3 variant P331_09D/GpL16-k0 (antibody, human IgG1, kappa)
heavy 1: not shown
heavy 2: not shown
light: B1 light
notes: as for B1
B11: GpH7-A5/GpH7-B3 variant P329_09D/GpL16-k0 (antibody, human IgG1, kappa)
heavy 1: not shown
heavy 2: not shown
light: B1 light
notes: as for B1
B12: GpH7-A5/GpH7-B3 variant L328_14T/GpL16-k0 (antibody, human IgG1, kappa)
heavy 1: not shown
heavy 2: not shown
light: B1 light
notes: as for B1
B13: GpH7-A5/GpH7-B3 variant N325_13S/GpL16-k0 (antibody, human IgG1, kappa)
heavy 1: not shown
heavy 2: not shown
light: B1 light
notes: as for B1
B14: GpH7-A5/GpH7-B3 variant P331_03V/GpL16-k0 (antibody, human IgG1, kappa)
heavy 1: not shown
heavy 2: not shown
light: B1 light
notes: as for B1
B15: GpH7-A5/GpH7-B3 variant L328_06M/GpL16-k0 (antibody, human IgG1, kappa)
heavy 1: not shown
heavy 2: not shown
light: B1 light
notes: as for B1
B16: GpH7-A5/GpH7-B3 variant P329_10E/GpL16-k0 (antibody, human IgG1, kappa)
heavy 1: not shown
heavy 2: not shown
light: B1 light
notes: as for B1
B17: GpH7-A5/GpH7-B3 variant L328_15Y/GpL16-k0 (antibody, human IgG1, kappa)
heavy 1: not shown
heavy 2: not shown
light: B1 light
notes: as for B1
B18: GpH7-A5/GpH7-B3 variant L328_13S/GpL16-k0 (antibody, human IgG1, kappa)
heavy 1: not shown
heavy 2: not shown
light: B1 light
notes: as for B1
B19: GpH7-A5/GpH7-B3 variant P331_11K/GpL16-k0 (antibody, human IgG1, kappa)
heavy 1: not shown
heavy 2: not shown
light: B1 light
notes: as for B1
B20: GpH7-A5/GpH7-B3 variant P331_07I/GpL16-k0 (antibody, human IgG1, kappa)
heavy 1: not shown
heavy 2: not shown
light: B1 light
notes: as for B1
B21: GpH7-A5/GpH7-B3 variant P331_04F/GpL16-k0 (antibody, human IgG1, kappa)
heavy 1: not shown
heavy 2: not shown
light: B1 light
notes: as for B1
B22: GpH7-A5/GpH7-B3 variant P331_10E/GpL16-k0 (antibody, human IgG1, kappa)
heavy 1: not shown
heavy 2: not shown
light: B1 light
notes: as for B1
B23: GpH7-A5/GpH7-B3 variant L328_19Q/GpL16-k0 (antibody, human IgG1, kappa)
heavy 1: not shown
heavy 2: not shown
light: B1 light
notes: as for B1
B24: GpH7-A5/GpH7-B3 variant L328_16H/GpL16-k0 (antibody, human IgG1, kappa)
heavy 1: not shown
heavy 2: not shown
light: B1 light
notes: as for B1

What was measured:
Test in all cases: SPR (Biacore); binding relative to GpH7-A5/GpH7-B3/GpL16-k0 x100;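 further: antibodies captured on a chip surface, soluble FcγR flowed over in HBS-EP+ running buffer at 25 °C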
[1] = molecular target: T1, FcγRIIb extracellular domain, …
Description: (§1) The antibody of interest was analyzed for its interaction with FcγR using a BiaCore™ T100, BiaCore™ A100, or BiaCore™ 4000 surface plasmon resonance system (GE Healthcare Japan Corp.). The running buffer used was HBS-EP+ (GE Healthcare Japan Corp.). The assay temperature was set to 25° C. The sensor chips used were: a chip prepared by immobilizing antigenic peptides onto Series S Sensor Chip CM5 (GE Healthcare Japan Corp.) by the amine coupling method; a chip prepared by immobilizing antigenic peptides biotinylated in advance onto Series S Sensor Chip SA (certified) (GE Healthcare Japan Corp.) through their interaction; a chip prepared by immobilizing protein L (ACTIGEN, BioVision, Inc.) onto Series S Sensor Chip CM5 (GE Healthcare Japan Corp.); and a chip prepared by immobilizing protein A/G (Thermo Fisher Scientific K.K.) onto Series S Sensor Chip CM5 (GE Healthcare Japan Corp.). The antibody of interest was captured onto any of these chips and allowed to interact with FcγR diluted with a running buffer. The antibody captured on the chip was washed off through the reaction of 10 mM glycine-HCl (pH 1.5) to regenerate the chip, which was repetitively used.

[2] = molecular target: T4, FcγRIa extracellular domain, C-terminal His tag (human, UniProt P12314 16-292)
T4 construct: extracellular domain; also called 1a
Description: as §1

[3] = molecular target: T2, FcγRIIa(R) extracellular domain, …
Description: as §1

[4] = molecular target: T5, FcγRIIIa extracellular domain, C-terminal His tag (human, UniProt P08637 17-208)
T5 construct: extracellular domain; also called 3a
Description: as §1

[5] = molecular target: T3, FcγRIIa(H) extracellular domain, …
Description: as §1

T5 sequence (P08637 other isoform, or with tags, fused parts or gaps): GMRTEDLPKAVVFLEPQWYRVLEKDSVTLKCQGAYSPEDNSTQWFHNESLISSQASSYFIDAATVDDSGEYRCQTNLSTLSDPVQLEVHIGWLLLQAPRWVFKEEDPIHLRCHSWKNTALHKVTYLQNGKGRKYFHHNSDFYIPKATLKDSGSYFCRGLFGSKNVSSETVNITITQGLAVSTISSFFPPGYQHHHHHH
T4 sequence (P12314 other isoform, or with tags, fused parts or gaps): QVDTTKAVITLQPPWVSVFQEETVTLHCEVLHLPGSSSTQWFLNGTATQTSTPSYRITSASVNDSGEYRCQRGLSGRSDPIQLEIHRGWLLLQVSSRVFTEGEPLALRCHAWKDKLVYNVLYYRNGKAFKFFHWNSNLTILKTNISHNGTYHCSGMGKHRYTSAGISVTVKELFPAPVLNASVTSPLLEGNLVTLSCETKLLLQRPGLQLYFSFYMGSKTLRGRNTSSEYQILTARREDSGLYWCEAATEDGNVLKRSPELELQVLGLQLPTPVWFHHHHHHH

| Binder | He/Con 2b [1] | He/Con 1a [2] | He/Con 2aR [3] | He/Con 3a [4] | He/Con 2aH [5] |
| --- | --- | --- | --- | --- | --- |
| B1 | 157% | 103% | 150% | 80.9% | 116% |
| B2 | 106% | 105% | 101% | 66% | 85.9% |
| B3 | 139% | 105% | 111% | 53% | 55.3% |
| B4 | 273% | 100% | 177% | 81.5% | 84.9% |
| B5 | 78.5% | 99.9% | 85.3% | 68% | 50% |
| B6 | 110% | 105% | 105% | 82.5% | 93.9% |
| B7 | 101% | 101% | 76.4% | 51.1% | 80.6% |
| B8 | 200% | 102% | 160% | 86.4% | 111% |
| B9 | 113% | 106% | 105% | 68.4% | 88.1% |
| B10 | 104% | 109% | 101% | 71.6% | 93.6% |
| B11 | 60.4% | 80.1% | 76% | 52.5% | 57.1% |
| B12 | 176% | 103% | 153% | 77.4% | 138% |
| B13 | 198% | 102% | 137% | 71.9% | 83% |
| B14 | 132% | 104% | 114% | 66.9% | 85.4% |
| B15 | 176% | 101% | 148% | 80.8% | 122% |
| B16 | 59.5% | 81.4% | 72.7% | 52.7% | 57.6% |
| B17 | 240% | 104% | 174% | 70.2% | 106% |
| B18 | 186% | 101% | 150% | 73.7% | 146% |
| B19 | 93.9% | 100% | 94.6% | 61.8% | 83.7% |
| B20 | 127% | 106% | 109% | 60.4% | 80.1% |
| B21 | 122% | 108% | 110% | 70.7% | 87.7% |
| B22 | 128% | 108% | 112% | 68.7% | 90.1% |
| B23 | 131% | 104% | 115% | 83.4% | 103% |
| B24 | 100% | 98.5% | 106% | 55.9% | 84.5% |
